{"source": "patent US20180021429A1", "about": "“ANTICANCER AGENTS OR ANTIMETASTATIC AGENTS USING FSTL1 AND COMBINATION DRUG THEREOF” (PHARMA FOODS INTERNATIONAL CO., LTD., priority 2015, published 2018)", "molecules": {"B1": {"name": "#6-55: chicken-mouse chimeric anti-FSTL1 antibody clone; variable regions SEQ ID NO: 783 (light), 785 (heavy) (antibody, V domains shown)", "VH": "AVTLDESGGGLQTPGGALSLVCKGSGFTFTSVTMQWVRQAPGKGLEWVASVCSGSSTYYAPAVKGRATISRDNGQSTVRLQLSNLRPEDTGTYYCAKIAGRARWSCTSAAYNIDAWGHGTEVIVSS", "VL": "ASTQPSSVSAIPGETVKITCSGGGNNYGWYQQRSPGSAPVTVIYYNDNRPSNIPSRFSGSTSGSTSTLTITGVQADDEAIYYCGSWDSNTDSGIFGAGTTLTVL", "modifications": "mouse constant regions"}}, "key": {"[1]": {"system": "induction of MSCs having the ability to differentiate into adipocytes", "assay": "Ability to differentiate into adipocytes (Examples 14, 16)", "assay_type": "cell-based, mouse", "conditions": "Example 16, FIG. 10B/40B; antibody 2.5-20.0 μg/ml", "experimental": "The antibody clone (#6-55, #7, #10, #13, or […]) was evaluated for its activity by the same testing method as in Example 13. #6-55 was set as a positive control for activity. […] Mouse bone marrow cells were supplemented with FSTL1 and the predetermined concentration of each antibody and cultured for 8 days. 5×10^4 cells/well were separated from each culture system and evaluated for the ability to differentiate into adipocytes using an adipocyte differentiation reagent included in “Mesenchymal Stem Cell Functional Identification Kit (R&D Systems, Inc., Cat. No. SC010)”. For the evaluation method, the cells were supplemented with the adipocyte differentiation reagent and cultured for 8 days. Then, adipocytes per culture system were counted under a microscope for evaluation. […]\nIn the same way as in Example 15, mouse bone marrow cells were supplemented with FSTL1 and the predetermined concentration of each antibody and cultured for 8 days. 5×10^4 cells/well were separated from each culture system and evaluated for the ability to differentiate into adipocytes using an adipocyte differentiation reagent included in “Mesenchymal Stem Cell Functional Identification Kit (R&D Systems, Inc., Cat. No. SC010)”. […] Then, adipocytes per culture system were counted under a microscope for evaluation (FIG. 10B). […]"}, "[2]": {"system": "Treg induction caused by FSTL1", "assay": "Treg induction inhibitory activity using human peripheral blood cells (Example 25)", "assay_type": "cell-based", "conditions": "human PBMCs; FSTL1 5 ng/ml; antibody 5 μg/mL; 3 days", "experimental": "Human peripheral blood cells (1×10^6 cells) were stimulated using FSTL1 (5 ng/ml), supplemented with the antibody (5 μg/mL), and cultured for 3 days. The percentage of a Foxp3^+CTLA4^+ cell fraction (Exp. 1) or a CD4^+Foxp3^+CTLA4^+ cell fraction (Exp. 2) in CD4^+ T cells was analyzed as Treg cells by flow cytometry. The flow cytometry conditions are as follows.\nBlood was collected from a healthy person by the addition of a 1/10 amount of 4% sodium citrate, then layered on Ficoll (specific gravity: 1.090), and centrifuged (1500 rpm, 20 min, room temperature), and a cell fraction present in an intermediate layer was used as “PBMCs”. The antibody (5 μg/mL) was added to a system in which these PBMCs (1×10^4 cells) were cultured for 3 days under stimulation with FSTL1 (5 ng/ml) in a 24-well plate. PBMCs recovered from the culture system were incubated at 4° C. for 1 hour using an anti-CD4 antibody (BD Pharmingen/Becton, Dickinson and Company), an anti-CD25 antibody (BD Pharmingen/Becton, Dickinson and Company), and an anti-FoxP3 antibody (eBioscience). Then, the percentage of a Foxp3+CTLA4+ cell fraction (Exp. 1) or a CD4+Foxp3+CTLA4+ cell fraction (Exp. 2) in CD4+ T cells contained therein was analyzed as Treg cells using a flow cytometer FACScan (Becton, Dickinson and Company)."}, "[3]": {"system": "Panc1, Panc1-snail+, MIAPaCa, MDA231, Hs294T", "assay": "Proliferative capacity and invasive capacity of various human tumor cells (Example 26)", "assay_type": "cell-based", "conditions": "antibody 5 μg/ml; 3 days culture; Matrigel transwell 4 hours", "experimental": "Specifically, the influence of the anti-FSTL1 antibody on proliferative capacity and invasive capacity was studied using various human tumor cells, regardless of the presence or absence of the expression of Snail or FSTL1. Specifically, the anti-FSTL1 antibody (#6-55, 5 μg/ml) or a control antibody (aHema: mouse chimeric anti-hemagglutinin antibody, 5 μg/ml) was added to systems in which a pancreatic cancer cell line Panc1 (ATCC #CRL-1469), Panc1-snail+ which is a Panc1 cell line forced to express Snail, a pancreatic cancer cell line MIAPaCa (ATCC #CRL-1420), a bone metastatic breast cancer cell line MDA231 (ATCC #HTB-26), and a melanoma cell line Hs294T (ATCC #HTB-140) were each cultured at 1×10^5 cells. After culture for 3 days, the number of cells per culture system was counted to evaluate the proliferative capacity of the cells. The cells (5×10^4 cells) after the counting were further inoculated to Matrigel-coated transwell chamber (Corning Inc. #354480) and cultured for 4 hours. Then, the membranes were removed, and stained and fixed with Crystal Violet fixative. Then, the number of cells that permeated the membranes was counted under a microscope to evaluate the invasive capacity of the cells."}, "[4]": {"system": "mouse breast cancer 4T1 cells", "assay": "Mouse breast cancer 4T1 cell-transplanted model (Example 21)", "assay_type": "in vivo", "conditions": "BALB/c mice; intraperitoneal 10 mg/kg on days 4 and 7; FIG. 109", "experimental": "Procedures and methods of the experiment were basically performed according to Examples 17 to 20 under substantially the same conditions as in the bone metastasis model experiments of Examples 17 to 20. Drug efficacy evaluation was conducted using mouse tumor models other than Snail-positive tumor bone metastasis models. The drug efficacy of the anti-FSTL1 antibody was evaluated using cancer-bearing models of BALB/c mice different in strain from the C57BL/6 mice used in the preceding tests. Changes were made as follows. • Day 0: transplantation of tumor cells (5×10^5 cells subcutaneously & 5×10^5 cells intravenously) • Days 4 and 7: intraperitoneal administration of the antibody (10 mg/kg) • Day 14: drug efficacy evaluation (subcutaneous tumor growth)\nThe tumor volumes of the mice were measured 4, 7, 11, and 14 days after tumor implantation."}, "mouse melanoma B16-F10": {"system": "mouse melanoma B16-F10", "assay": "Mouse melanoma B16-F10 model, subcutaneous and intravenous transplantation (Example 22)", "assay_type": "in vivo", "conditions": "intraperitoneal 10 mg/kg on days 3 and 6; FIG. 110", "experimental": "The drug efficacy of the anti-FSTL1 antibody was evaluated according to Examples 17 to 20 using other cancer-bearing models of C57BL/6 mice of the same strain as in Snail-positive tumor bone metastasis models. The “mouse melanoma B16-F10” is a parent line of the cell line forced to express Snail, which was transplanted in the bone metastasis models used in the preceding tests.\n1. Experiment Group (n=5) • 1. Mouse melanoma B16-F10+control IgG (anti-DNP mAb) • 2. Mouse melanoma B16-F10+anti-FSTL1 mAb (#6-55)\n• Day 0: transplantation of tumor cells (1×10^6 cells subcutaneously & 1×10^6 cells intravenously) • Day 3: intraperitoneal administration of the antibody (first dose, corresponding to 200 μg/mouse=10 mg/kg) • Day 6: intraperitoneal administration of the antibody (second dose, corresponding to 200 μg/mouse=10 mg/kg) • Day 15 various immunological assays\n• Effects on the growth of subcutaneous tumor (calculation of tumor volume by tumor size measurement): measured 6, 10, and 14 days after tumor implantation (FIG. 110A) • Effects on weight loss (FIG. 110B)"}}, "note": "“Also recorded” adds a separate entry of the source.", "data": [{"molecule": "B1", "values": [{"measurement": "differentiation into adipocytes (induction of MSCs having the ability to differentiate into adipocytes)", "setting": "[1]", "result": "inhibited by #6-55 in an antibody dose-dependent manner; also recorded: cells differentiating into adipocytes decreased in number by the addition of #6-55 in a dose-dependent manner"}, {"measurement": "Treg induction by FSTL1 (Foxp3+CTLA4+ / CD4+Foxp3+CTLA4+ cell fraction)", "setting": "[2]", "result": "significantly suppressed"}, {"measurement": "proliferative capacity and invasive capacity of tumor cells", "setting": "[3]", "result": "both proliferative capacity and invasive capacity were strongly suppressed, particularly, in a highly metastatic tumor cell line highly expressing Snail"}, {"measurement": "growth of 4T1 subcutaneous tumor", "setting": "[4]", "result": "significantly suppressed"}, {"measurement": "subcutaneous tumor growth", "setting": "mouse melanoma B16-F10", "result": "strongly suppressed"}, {"measurement": "weight loss", "setting": "mouse melanoma B16-F10", "result": "suppressive activity against weight loss was also exhibited"}]}]}
